{"source": "patent US20190336496A1", "about": "“SELECTIVE BCL-2 INHIBITORS IN COMBINATION WITH AN ANTI-PD-1 OR AN ANTI-PD-L1 ANTIBODY FOR THE TREATMENT OF CANCERS” (AbbVie Inc., priority 2018, published 2019)", "molecules": {"B1": {"name": "anti mu PD1 (17D2 murinized, VH2xVL1x)[mu IgG2a/k] DANA: Mouse anti-PD-1 antibody, heavy chain SEQ ID NO: 3, light chain SEQ ID NO: 4 (antibody)", "heavy": "QVTLKESGPGILQSSQTLSLTCTFSGFSLSTYGMGVGWIRQPSGKGLEWLTNIWWDDDKYYNSSLKNRLTVSKDTANNQVFLKFTSVDIADTATYYCGRMEWGGSFDYWGQGIMVTVSSAKTTAPSVYPLAPVCGDTTGSSVTLGCLVKGYFPEPVTLTWNSGSLSSGVHTFPAVLQSDLYTLSSSVTVTSSTWPSQSITCNVAHPASSTKVDKKIEPRGPTIKPCPPCKCPAPNLLGGPSVFIFPPKIKDVLMISLSPIVTCVVVAVSEDDPDVQISWFVNNVEVHTAQTQTHREDYASTLRVVSALPIQHQDWMSGKEFKCKVNNKDLPAPIERTISKPKGSVRAPQVYVLPPPEEEMTKKQVTLTCMVTDFMPEDIYVEWTNNGKTELNYKNTEPVLDSDGSYFMYSKLRVEKKNWVERNSYSCSVVHEGLHNHHTTKSFSRTPGK", "light": "DIVMTQTPVSLSVSLGGQVSISCRSSQSLEHRNGITFLSWYLQKPGQSPQLLIYKVSNRFSGISDRFSGRGSGTDFVLQINRVEPDDLGVYYCGQGTHYPLTFGSGTKLEIKRADAAPTVSIFPPSSEQLTSGGASVVCFLNNFYPKDINVKWKIDGSERQNGVLNSWTDQDSKDSTYSMSSTLTLTKDEYERHNSYTCEATHKTSTSPIVKSFNRNEC"}}, "test_system": "CT26 tumors", "assay": "CT26 mouse colon carcinoma syngeneic model", "type": "in vivo", "settings": "CT26; groups of 10 mice; CR = tumor volume ≤25 mm^3 over at least 3 successive measurements", "note": "Values joined by “and” are separate entries in the source; they are usually repeats but may differ in a detail not shown here. Equal values may be shown once."}
{"molecule": "B1", "values": [{"measurement": "complete responses (CR)", "value": "did not lead to any complete responses and 0/10"}]}
